# In the nanobody polyreactivity screen of Harvey et al. (2022):
# Assay: yeast display, Sf9 membrane polyspecificity reagent, FACS + sequencing; frameworks hold sequencing errors
# Summary of the method: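 Galactose-induced (36–48 hours) yeast carrying a synthetic nanobody display library were exposed to 10% biotinylated, detergent-solubilized Sf9 membrane reagent at 4 °C for 1 hour. FACS followed streptavidin microbead enrichment, using low and high (top ~1%) gates for expression (anti-HA) and reagent binding (streptavidin). Colony PCR, MiSeq 2 × 250 sequencing and CDR-length filtering followed. Labels for polyreactivity reflect the gate of origin.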
row,Sequence,polyreactivity (PSR sort gate)
1,QVQLVESGGGLVQAGGSLRLSCAASGRTFAPYAMGWYRQAPGKERELVAGITYRTGNTYYADSVKGRFTISRDNAKNTVYLQMNTLKPEDTGVYYCAAYSGYYRPRYNYWGQGTQVTVSS,high polyreactivity
2,QVQLVESGGGLVQAGGSLRLSCAASGRTFAPYVMGWYRQAPGKERELVAAITWSGGSTYYADSVKGRFTISRDNAKKTVYLQMNSLKPEDTAVYYCAVKGAGGPKYDYWGQGTQVTVSS,high polyreactivity
3,QVQLVESGGGLVQAGGSLRLSCAASGRTFARYAMGRYRQAPGKERELVAAITRGSGSTYYADSVKGRFTISRDNAKNTVYLQMNSLKTEDTAVYFCAKRSRGLKFDYWGQGTQVTVSS,high polyreactivity
4,QVQLVESGGGLVQAGGSLRLSCAASGRTFARYAMGWYRQAPGKERELVASNRRGTSTNYADSVKGRFTISRDNAKNTVYLQMNSLKPEDTAVYYCAARVGTQGDHGDYWGQGTQVTVSS,high polyreactivity
5,QVQLVESGGGLVQAGGSLRLSCAASGRTFASNAMGCYRQAPGKERELVAAITISGGRTYYADSVKGRFTISRDNAKNTVYLQMNSLKPEDTAVYYRAAAKHSWRPSYYWGGYWGQGTQVTVSS,low polyreactivity
6,QVQLVESGGGLVQAGGSLRLSCAASGRTFASYAMGWNRQPPGKERELFARISKSGGSTYYADSVKGRFTISRDNAKNTVYLQMNSLKPEDTAVYYCAAEYPFEIGYVYYSIDYDYWRQGTQVTVSS,low polyreactivity
7,QVQLVESGGGLVQAGGSLRLSCAASGRTFASYAMGWYRQAPGKERELVAGITSGGNTYYADSVKGRFTISRDNAKNTVYLQMNSLKPEDTAVFYCAADGVYKGWPTHYDYWGHGTQVTVSS,high polyreactivity
8,QVQLVESGGGLVQAGGSLRLSCAASGRTFASYAMGWYRQAPGKERQLVAAITRGGNTNYADSVKGRFTISRDNAKNTVYLQMNSLNPEDTAVYYCATEGFVYSWLWEFEYWGQGTQVTVSS,low polyreactivity
9,QVQLVESGGGLVQAGGSLRLSCAASGRTFATNAMGWYRQAPGKERELVAAISRRGASTYYADSVKGRFTISRDNAKNTVYLQMNSLKPEDTAVYYCAARQYIRGARIYDYWGQGTQVTVSS,high polyreactivity
10,QVQLVESGGGLVQAGGSLRLSCAASGRTFATYAMGWYRQAPGKERELVAAISNSGGRTNYADSVKGRFTISRDNAKNTVYLQMNSLKPEDTAVYYCAAAKRYYSEMYWGQGTQVTVSS,high polyreactivity
11,QVQLVESGGGLVQAGGSLRLSCAASGRTFATYTMGWYRQAPGQERELVAAITRGGGSTFYADSVQGRFTITRDHAKNPVYLQMNSLKPEDTAVYYFAARIPGSFKSGYWGQGTQVTVSS,high polyreactivity
12,QVQLVESGGGLVQAGGSLRLSCAASGRTFAVYAMGWYRQAPGKERELVAAISRRGGSTYYADSVKGRFTISRDNAKNTVYLQMNSLKPEDTAVYYCATDNSQSTYPYDYWGQGTQVTVSS,high polyreactivity
13,QVQLVESGGGLVQAGGSLRLSCAASGRTFAYNAMGWYRQAPGKERELVAAIRWSADSTYYADSVKGRFTISRDNAKNTVYLQMNSLKPEDTAVYYCARRRYVGAFSVATLDYWGQGTQVTVSS,high polyreactivity
14,QVQLVESGGGLVQAGGSLRLSCAASGRTFAYNAMGWYRQAPGKERELVAAITRRGGSTYYADSVKGRFTISRDNAKITVYLQMNSLKPEDTAVYYCDARWVTTVQGDGRYDYWGQGTQVTVSS,low polyreactivity
15,QVQLVESGGGLVQAGGSLRLSCAASGRTFAYNTMGWYRQAPGKERELVAVISSGGRTYYADSGKGRFTMSRDNAKNTVYLQMNSLKPEDTAVYYCAADGYPYKYDYWGQGTQVTVSS,high polyreactivity
16,QVQLVESGGGLVQAGGSLRLSCAASGRTFAYYAMGWYRQAPGKERELVAAIDSSGGDTYYADSVKGRFTISRDNAKNTVYLQMNSLKPEDTAVYYCAADYYWEMDSWGQGTQVTVSS,low polyreactivity
17,QVQLVESGGGLVQAGGSLRLSCAASGRTFAYYAMGWYRQAPGKERELVAAISSGGGSTYYADSVKGRFTISRDNAKNTVYLQMNRLKPEDTSVYYCNKGFEFWGQGTQVTVSS,high polyreactivity
18,QVQLVESGGGLVQAGGSLRLSCAASGRTFAYYAMGWYRQAPGKERELVAAITQSGGRTYYADSVKGRFTISRDNAKNTVYLQMNSLKPEDTAVYYCAARRISGKWEYDYWGQGTQVTVSS,high polyreactivity
19,QVQLVESGGGLVQAGGSLRLSCAASGRTFAYYAMGWYRQAPGTERELVAAISYSGARTYYADSVKGRFTISRDNAKNTVYLQMNSLKPEDTAVYYCAKSRGYPYTDYNYWGQGTQVTVSS,high polyreactivity
20,QVQLVESGGGLVQAGGSLRLSCAASGRTFAYYTMGWYRQAPGKERELVAAISWIGGSTYYADSVKGRFTISRDNAKNTVYLQMNSLKPEDTAVYYCNAVGLHWWPGDYWGQGTQVTVSS,low polyreactivity
21,QVQLVESGGGLVQAGGSLRLSCAASGRTFAYYTMGWYRQAPGKERELVARISGYGGSTYYADSVKGRFTLSRDNAKNTVYLQMNSLKPEDTAVYYCNVVGAYYRYDYWGQGTQVTVSS,high polyreactivity
22,QVQLVESGGGLVQAGGSLRLSCAASGRTFCSNAMGWYRQAPGKERELVARISWSGGSTYYADSVKGRFTISRDNAKNTVYLQMNSLKPEVTAVYYCAKYYPGRSAFSEGTYWGQGTQVTVSS,low polyreactivity
23,QVQLVESGGGLVQAGGSLRLSCAASGRTFCSYTKAWYRQAPGKERELVAAISSGGSTTYADSVKGRFTISRDNAKNTVYLQLNSLKPEDTAVYYCATRAVWSSWGRRYDPWGQGTQVTVSS,high polyreactivity
24,QVQLVESGGGLVQAGGSLRLSCAASGRTFCVYVMGWYRQAPGKERQLVAAIDDSGGSTYYADSVKGRFTISRDNAKNTVYLQMNSLKPEDTAVYYCAKTKTQYLTSEIRFDYWGQGTQVTVSS,low polyreactivity
25,QVQLVESGGGLVQAGGSLRLSCAASGRTFDEYPMGWYRQAPGKERELVAAISTRGGSTYYADSVKGRFSISRDNAKNTVYLQMNSLKPEDTAVYYCAKAYYPYRYFSVYSDLESWGQGTQVTVSS,high polyreactivity
26,QVQLVESGGGLVQAGGSLRLSCAASGRTFDFYAMGWYRQAPGKERELVAGITSGDSTHYADSVKGRFTISRDNAKNTVYLQMNSLKPEDTAVYYCAADITWYDYAGSHIVEHDYWGQGTQVTVSS,low polyreactivity
27,QVQLVESGGGLVQAGGSLRLSCAASGRTFDGYTMGWYRQAPGKERELVAAISGGGGSTYYADSVKGRFTISRDNAKNTVYLQLNSLKPEDTAVYYCNKVVRQHGGLYNYWGQGTQVTVSS,low polyreactivity
28,QVQLVESGGGLVQAGGSLRLSCAASGRTFDHNAMGWYRQAPGKERELVAAITWSGGITDYADSVKRPFTISRDNAKNTVYLQMNSLKPEDTAVCGQGTQVTVSS,low polyreactivity
29,QVQLVESGGGLVQAGGSLRLSCAASGRTFDHYAMGWYIQAPGKERELVAAISNSDGSTNYADSVKGRFTISRDNAMNTVYLQMNSLKPEDTAVYYCNKLYRGGWYDYWGLGTQVTVSS,low polyreactivity
30,QVQLVESGGGLVQAGGSLRLSCAASGRTFDIYAMGWYRQAPGKERELVAAINRSAGDTYYADSVKGGFTISRDNAKNTVYLQMNSLKPEDTAVYYCNAERVPYVPWLLYTEYVNYVYWGQGTQLTVSS,high polyreactivity
